Tested on: Escherichia coli TOP10
Experiment: shrunken log2 fold change of peptide-encoding DNA abundance (4.5 h post-induction vs induction); higher = less antimicrobial activity (less host growth inhibition)
Details: time post-induction: 4.5 h; library: site-saturation at positions 5, 18, 19, 20
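Further: peptides expressed intracellularly from a pBAD plasmid library in pooled LB shake-flask culture, induced with 0.3% L-arabinose, DNA abundance read by NGS, three biological replicates, DESeq2 with apeglm shrinkage.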

## RRIRNRPPRLPRPRPRPFEFPRP
  shrunken log2 fold change: -0.0681

## RRIRYRPPRLPRPRPRPIQHPRP
  shrunken log2 fold change: -0.89

## RRIRIRPPRLPRPRPRPIMQPRP
  shrunken log2 fold change: -0.557

## RRIRGRPPRLPRPRPRPSDMPRP
  shrunken log2 fold change: 0.488

## RRIRSRPPRLPRPRPRPDDKPRP
  shrunken log2 fold change: 0.132

## RRIRWRPPRLPRPRPRPCVGPRP
  shrunken log2 fold change: 0.352

## RRIRCRPPRLPRPRPRPKRRPRP
  shrunken log2 fold change: 0.0984

## RRIRRRPPRLPRPRPRPMQKPRP
  shrunken log2 fold change: 0.026

## RRIRQRPPRLPRPRPRPMCHPRP
  shrunken log2 fold change: -0.136

## RRIRERPPRLPRPRPRPTYVPRP
  shrunken log2 fold change: -0.132

## RRIRIRPPRLPRPRPRPPDKPRP
  shrunken log2 fold change: -0.0243

## RRIRHRPPRLPRPRPRPTVPPRP
  shrunken log2 fold change: -0.0133

## RRIRMRPPRLPRPRPRPSNRPRP
  shrunken log2 fold change: -0.0397

## RRIRLRPPRLPRPRPRPWSGPRP
  shrunken log2 fold change: -0.000803

## RRIRARPPRLPRPRPRPKEDPRP
  shrunken log2 fold change: 0.133

## RRIRIRPPRLPRPRPRPYSQPRP
  shrunken log2 fold change: -0.269

## RRIRFRPPRLPRPRPRPPIPPRP
  shrunken log2 fold change: 0.257

## RRIRFRPPRLPRPRPRPLVMPRP
  shrunken log2 fold change: -0.335

## RRIRKRPPRLPRPRPRPTITPRP
  shrunken log2 fold change: -0.1

## RRIRFRPPRLPRPRPRPQSPPRP
  shrunken log2 fold change: -0.13

## RRIRNRPPRLPRPRPRPSESPRP
  shrunken log2 fold change: -0.0302

## RRIRLRPPRLPRPRPRPYGKPRP
  shrunken log2 fold change: -0.242

## RRIRLRPPRLPRPRPRPCLVPRP
  shrunken log2 fold change: 0.127

## RRIRPRPPRLPRPRPRPHKNPRP
  shrunken log2 fold change: -0.0554

## RRIRFRPPRLPRPRPRPHLNPRP
  shrunken log2 fold change: -0.624

## RRIRSRPPRLPRPRPRPMVNPRP
  shrunken log2 fold change: 0.00321

## RRIRWRPPRLPRPRPRPVNCPRP
  shrunken log2 fold change: 0.0456

## RRIRFRPPRLPRPRPRPLAKPRP
  shrunken log2 fold change: 0.182

## RRIRQRPPRLPRPRPRPHHPPRP
  shrunken log2 fold change: 0.00343

## RRIRFRPPRLPRPRPRPWCDPRP
  shrunken log2 fold change: -0.329

## RRIRDRPPRLPRPRPRPVTVPRP
  shrunken log2 fold change: -0.135

## RRIRARPPRLPRPRPRPNAGPRP
  shrunken log2 fold change: 0.315

## RRIRIRPPRLPRPRPRPVQPPRP
  shrunken log2 fold change: 0.204

## RRIRTRPPRLPRPRPRPASTPRP
  shrunken log2 fold change: -0.0927

## RRIRARPPRLPRPRPRPIHWPRP
  shrunken log2 fold change: 0.0725

## RRIRRRPPRLPRPRPRPLPHPRP
  shrunken log2 fold change: 0.485

## RRIRARPPRLPRPRPRPFYVPRP
  shrunken log2 fold change: -0.383

## RRIRCRPPRLPRPRPRPLFNPRP
  shrunken log2 fold change: -0.665

## RRIRGRPPRLPRPRPRPFDTPRP
  shrunken log2 fold change: 0.151

## RRIRKRPPRLPRPRPRPDGMPRP
  shrunken log2 fold change: -0.00135

## RRIRIRPPRLPRPRPRPSETPRP
  shrunken log2 fold change: -0.297

## RRIRGRPPRLPRPRPRPTWDPRP
  shrunken log2 fold change: 1.01

## RRIRDRPPRLPRPRPRPYIEPRP
  shrunken log2 fold change: -0.0649

## RRIRMRPPRLPRPRPRPTQSPRP
  shrunken log2 fold change: 1.03

## RRIRRRPPRLPRPRPRPGHFPRP
  shrunken log2 fold change: -0.204

## RRIRARPPRLPRPRPRPLDAPRP
  shrunken log2 fold change: 0.746

## RRIRNRPPRLPRPRPRPHSVPRP
  shrunken log2 fold change: -0.015

## RRIRMRPPRLPRPRPRPRKEPRP
  shrunken log2 fold change: 0.704

## RRIRLRPPRLPRPRPRPTKCPRP
  shrunken log2 fold change: -0.0436

## RRIRNRPPRLPRPRPRPQMQPRP
  shrunken log2 fold change: -0.0154

## RRIRSRPPRLPRPRPRPHLWPRP
  shrunken log2 fold change: -0.0232

## RRIRYRPPRLPRPRPRPVIYPRP
  shrunken log2 fold change: -0.0529

## RRIRDRPPRLPRPRPRPFKLPRP
  shrunken log2 fold change: 0.0184

## RRIRARPPRLPRPRPRPIAYPRP
  shrunken log2 fold change: 0.21

## RRIRERPPRLPRPRPRPMQLPRP
  shrunken log2 fold change: 0.0995

## RRIRFRPPRLPRPRPRPYQCPRP
  shrunken log2 fold change: -0.0374

## RRIRYRPPRLPRPRPRPFTWPRP
  shrunken log2 fold change: -1.51

## RRIRYRPPRLPRPRPRPTMNPRP
  shrunken log2 fold change: -0.446

## RRIRFRPPRLPRPRPRPIAPPRP
  shrunken log2 fold change: 0.0659

## RRIRRRPPRLPRPRPRPTKGPRP
  shrunken log2 fold change: 0.244

## RRIRVRPPRLPRPRPRPYHNPRP
  shrunken log2 fold change: -0.946

## RRIRERPPRLPRPRPRPTDDPRP
  shrunken log2 fold change: -0.00106

## RRIRLRPPRLPRPRPRPTQYPRP
  shrunken log2 fold change: -0.696

## RRIRNRPPRLPRPRPRPNFDPRP
  shrunken log2 fold change: 0.215

## RRIRARPPRLPRPRPRPTTIPRP
  shrunken log2 fold change: 0.0651

## RRIRMRPPRLPRPRPRPTPVPRP
  shrunken log2 fold change: 1.14

## RRIRYRPPRLPRPRPRPEEHPRP
  shrunken log2 fold change: 0.0203

## RRIRPRPPRLPRPRPRPLNVPRP
  shrunken log2 fold change: -0.448

## RRIRFRPPRLPRPRPRPFAAPRP
  shrunken log2 fold change: 0.114

## RRIRRRPPRLPRPRPRPNRWPRP
  shrunken log2 fold change: 0.107

## RRIRVRPPRLPRPRPRPPIEPRP
  shrunken log2 fold change: -0.115

## RRIRPRPPRLPRPRPRPAKKPRP
  shrunken log2 fold change: 0.0429

## RRIRWRPPRLPRPRPRPGDQPRP
  shrunken log2 fold change: 0.175

## RRIRLRPPRLPRPRPRPTSMPRP
  shrunken log2 fold change: -0.154

## RRIRPRPPRLPRPRPRPTCKPRP
  shrunken log2 fold change: -0.0419

Reference: the supplement of paper PMC9112550, “Optimization of the antimicrobial peptide Bac7 by deep mutational scanning” (BMC Biology, 2022)
